Test results as given in paper doi:10.1101/2025.09.11.675134, “Biodistribution-Driven Discovery Identifies a Glycosidase-Cleavable Linker to Reprogram Radiotheranostics” (bioRxiv, 2025).
Where two headings read alike, the source gives them in different places.

What was measured:
[1] = Ex vivo biodistribution of 86Y-labeled variants in AR42J tumor-bearing mice; conditions: athymic nude, mouse, iv, 1 ug, total radioactivity, mean; for tissue uptake at 1 h: 1 h post-injection; for tissue uptake at 4 h: 4 h post-injection; for tissue uptake at 24 h: 24 h post-injection
Protocol: To independently confirm these observations, ex vivo biodistribution studies were conducted using the same ^86Y-labeled compounds at matched timepoints (Fig. S16; Table S3). […]
For studies involving three variants (DOTA -TATE, DOTA-MVK(ε)-TATE, and DOTA-β-Gal-TATE), AR42J cells (5 × 10^6 cells per mouse) were subcutaneously inoculated into the right shoulder of the mice. Tumors were allowed to grow for 3 weeks, reaching a volume of 100 –200 mm³ before being used in subsequent experiments. For biodistribution or PET imaging studies, mice bearing subcutaneous AR42J tumors were administered 1.4 – 1.8 MBq (1 μg) of 111In-labeled DOTA-TATE variants or 2.7 – 4.9 MBq (1 μg) of 86Y-labeled DOTA-TATE variants via tail vein injection. Biodistribution studies with 111In-labeled DOTA -TATE variants were performed 1 hour post -injection (n = 3 per cohort), while studies with 86Y-labeled DOTA-TATE variants were conducted at 1, 4, and 24 hours post -injection (n = 3 per cohort). Mice were euthanized by CO2 asphyxiation, and 10 tissues, including tumors, were collected. All samples were weighed and counted on a gamma counter (2480 Wizard 3, Perkin Elmer Inc., Waltham, MA, USA). Results are presented as percentage of injected activity per gram (%IA/g) and mean values ± standard deviations. […]

[2] = PET/CT quantification of 86Y-labeled variants in AR42J xenograft mice; type: in vivo; conditions: athymic nude, mouse, in vivo, iv, total radioactivity
Protocol: For studies involving three variants (DOTA -TATE, DOTA-MVK(ε)-TATE, and DOTA-β-Gal-TATE), AR42J cells (5 × 10^6 cells per mouse) were subcutaneously inoculated into the right shoulder of the mice. Tumors were allowed to grow for 3 weeks, reaching a volume of 100 –200 mm³ before being used in subsequent experiments. For biodistribution or PET imaging studies, mice bearing subcutaneous AR42J tumors were administered 1.4 – 1.8 MBq (1 μg) of 111In-labeled DOTA-TATE variants or 2.7 – 4.9 MBq (1 μg) of 86Y-labeled DOTA-TATE variants via […]
tail vein injection. […]
PET imaging to assess the uptake of three 86Y-labeled DOTA-TATE variants (2.7 – 4.9 MBq, 1 μg) in the kidney and tumor was performed at 1, 4, and 24 hours post-injection (n = 3 per cohort) in mice bearing AR42J tumors using the MRS*PET/CT 120 scanner (MR Solutions, Guildford, UK). PET/CT data acquisition was managed using Preclinical Scan software (version 4.2.4.0, MR Solutions). Mice were anesthetized with 2% isoflurane, and static PET sc ans were acquired over 10 min. CT scans were obtained for attenuation correction and anatomical co-registration.
PET data were reconstructed using three-dimensional ordered-subsets expectation maximization, and were subsequently normalized, decay - and dead-time–corrected prior to analysis. PET/CT images were analyzed using MIM software (version 7.2.7, MIM Software Inc., Beachwood, OH, USA), and the quantitative evaluation of the maximum standardized uptake (SUVmax) and the average standardized uptake values (SUVmean) in the kidney and tumor were also performed. […]

[3] = blood, ex vivo, n = 3, read-out: Blood uptake
[4] = femur, ex vivo, n = 3, read-out: Femur uptake
[5] = heart, ex vivo, n = 3, read-out: Heart uptake
[6] = intestine, ex vivo, n = 3, read-out: Intestine uptake
[7] = ex vivo, n = 3, read-out: Tumor uptake
[8] = kidney, ex vivo, n = 3, read-out: Kidney uptake
[9] = liver, ex vivo, n = 3, read-out: Liver uptake
[10] = lung, ex vivo, n = 3, read-out: Lung uptake
[11] = muscle, ex vivo, n = 3, read-out: Muscle uptake
[12] = spleen, ex vivo, n = 3, read-out: Spleen uptake

## CSCC[C@H](NC(=O)CN1CCN(CC(=O)O)CCN(CC(=O)O)CCN(CC(=O)O)CC1)C(=O)N[C@H](C(=O)N[C@@H](CCCCNC(=O)CCCC(=O)N[C@H](Cc1ccccc1)C(=O)N[C@H]1CSSC[C@@H](C(=O)N[C@H](C(=O)O)[C@@H](C)O)NC(=O)[C@H]([C@@H](C)O)NC(=O)[C@H](CCCCN)NC(=O)[C@@H](Cc2c[nH]c3ccccc23)NC(=O)[C@H](Cc2ccc(O)cc2)NC1=O)C(=O)O)C(C)C [^86Y-DOTA-MVK(ε)-TATE, metal not drawn]
[1]; blood, i.v. 1 μg (2.7–4.9 MBq), ex vivo gamma counting, n = 3, read-out: Blood uptake
  tissue uptake at 1 h: 0.32 %ID/g
[1]; [3]
  tissue uptake at 4 h: 0.17 %ID/g
  tissue uptake at 24 h: 0.02 %ID/g
[1]; [4]
  tissue uptake at 1 h: 0.52 %ID/g
  tissue uptake at 4 h: 0.21 %ID/g
  tissue uptake at 24 h: 0.2 %ID/g
[1]; [5]
  tissue uptake at 1 h: 0.35 %ID/g
  tissue uptake at 4 h: 0.24 %ID/g
  tissue uptake at 24 h: 0.08 %ID/g
[1]; [6]
  tissue uptake at 1 h: 0.69 %ID/g
  tissue uptake at 4 h: 0.46 %ID/g
  tissue uptake at 24 h: 0.05 %ID/g
[1]; [7]
  tissue uptake at 1 h: 5.02 %ID/g
  tissue uptake at 4 h: 5.08 %ID/g
  tissue uptake at 24 h: 4.53 %ID/g
[1]; [8]
  tissue uptake at 1 h: 4.12 %ID/g
  tissue uptake at 4 h: 3.78 %ID/g
  tissue uptake at 24 h: 1.66 %ID/g
[1]; [9]
  tissue uptake at 1 h: 0.17 %ID/g
  tissue uptake at 4 h: 0.15 %ID/g
  tissue uptake at 24 h: 0.06 %ID/g
[1]; [10]
  tissue uptake at 1 h: 0.79 %ID/g
  tissue uptake at 4 h: 0.47 %ID/g
  tissue uptake at 24 h: 0.13 %ID/g
[1]; [11]
  tissue uptake at 1 h: 0.45 %ID/g
  tissue uptake at 4 h: 0.23 %ID/g
  tissue uptake at 24 h: 0.09 %ID/g
[1]; [12]
  tissue uptake at 1 h: 0.25 %ID/g
  tissue uptake at 4 h: 0.22 %ID/g
  tissue uptake at 24 h: 0.14 %ID/g
[2]; Kidney SUVmax
  SUV at 4 h: 0.42 ± 0.07 SUV
  SUV at 24 h: 0.21 ± 0.01 SUV
[2]; Tumor SUVmax
  SUV at 1 h: 1.31 ± 0.06 SUV
  SUV at 4 h: 1.06 ± 0.14 SUV
  SUV at 24 h: 1.04 ± 0.13 SUV
